Measured values as given in patent publication US20090130760A1 (ST MARIANNA UNIVERSITY SCHOOL OF MEDICINE, published 2009).

Biological target: T1, GST (UniProt P08515 1-218 = GST)
T1 construct: Control of the GST pull-down
Test: GST pull-down on glutathione-agarose beads, SDS-PAGE and Sypro Ruby stain
Procedure: The proteins bound to the beads were separated by SDS-PAGE and stained with Sypro Ruby.
Four micrograms of the GST fusion protein was mixed with 4 μg of His-BARD1¹⁴⁻¹⁸⁹ and 25 μl of glutathione-agarose beads in 1 ml of a buffer containing 50 mM Tris-HCl (pH 7.5), 0.5% NP-40, 150 mM NaCl, 50 mM NaF and 1 mM dithiothreitol. After rotation at 4° C. for 2 hours, GST fusion proteins bound to glutathione-agarose beads were washed three times and subsequently eluted with SDS-PAGE loading buffer.

T1 sequence (P08515 whole entry): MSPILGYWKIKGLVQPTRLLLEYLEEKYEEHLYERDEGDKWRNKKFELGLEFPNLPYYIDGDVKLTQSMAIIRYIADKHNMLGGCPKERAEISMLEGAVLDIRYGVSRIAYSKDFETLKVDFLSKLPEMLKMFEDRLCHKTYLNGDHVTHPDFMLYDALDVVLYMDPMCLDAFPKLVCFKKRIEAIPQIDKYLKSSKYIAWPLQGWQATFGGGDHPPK

B1: His-BARD1^14-189 (other)
chain: IRSGNEPRSAPAMEPDGRGAWAHSRAALDRLEKLLRCSRCTNILREPVCLGGCEHIFCSNCVSDCIGTGCPVCYTPAWIQDLKINRQLDSMIQLCSKLRNLLHDNELSDLKEDKPRKSLFNDAGNKKNSIKMWFSPRSKKVRYVVSKASVQTQPAIKKDASAQQDSYEFVSPSPPA
notes: Bacterially expressed recombinant protein; not shown: His tag
binding result: no binding (tested: 4 µg of each protein in 1 ml)
